This is an account of results in patent publication US20100040633A1 (published 2010).

Residue numbers refer to the chain shown, from its start.

The target in the assay is T1, TGF-beta 3 (human, UniProt P10600 301-412).
T1 construct: Bought protein; also called TGF-β3
T1 sequence (looked up): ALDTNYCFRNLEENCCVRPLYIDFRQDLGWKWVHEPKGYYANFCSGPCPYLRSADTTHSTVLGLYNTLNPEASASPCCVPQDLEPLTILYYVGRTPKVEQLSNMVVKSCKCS
Briefly: ratio of Biacore Kd for TGF-β3 to Kd for TGF-β1. The method, then:
Affinities of binding composition mAbs for TGF-β3 are determined using BIAcore methods. All measurements are performed at room temperature. Samples are dissolved in HBS-EP buffer (150 mM sodium chloride, 3 mM EDTA, 0.01% (w/v) surfactant P-20, and 10 mM HEPES, pH 7.4). Recombinant Protein A is immobilized on four flow cells of a CM4 sensor chip at a level of 400-450 response units (RUs) using an amine coupling kit. Binding is evaluated over multiple analytical cycles. Each cycle is performed at a flow rate of 100 μL/minute consisting of the following steps: injection of 15 μL of an antibody binding composition at 0.5 μg/mL, injection of 250 μL of TGF-β3 (starting at 5 nM and using two-fold serial dilutions to […] for each cycle, with two injections for each concentration) followed by a short (5 minutes) delay for dissociation, and regeneration using two injections of 50 μL of 10 mM glycine hydrochloride, pH 1.5.
Affinities are determined based upon the equilibrium signal as reached at varying TGF-β3 concentrations by measuring the average signal during the last 10 seconds of the TGF-β3 injections, and then fitting the resulting signals at all of the TGF-β3 concentrations to a simple binding equilibrium model in SCRUBBER (Center for Biomolecular Interaction Analysis, Univ. of Utah). Model data determined for tested human mab composition of the invention of Kd and specificity calculated by dividing the Kd for TGF-β3 binding by the Kd for TGF-β1 binding (herein) is shown below in Table 5.

B1: mAb 21D1 (antibody, human IgG4 S228P, kappa, V domains shown)
VH: QVQLVQSGAEVKKPGASVKVSCKASGYTFTDYNIHWVRQAPGQGLEWMGYIYPYDGETGYNQKFKSRVTMTTDTSTSTAYMELRSLRSDDTAVYYCARGYRWFAYWGQGTLVTVSS
VL: DIQMTQSPSSLSASVGDRVTITCRASSSVPYMHWFQQKPGKAPKSLIYATSNPAYGVPSRFSGSGSGTDFTLTISSLQPEDFATYYCQQWDLNPPAFGQGTKLEIKR
notes: Full-length IgG4 antibody; also called LA307-21D1
As to B1, the “Specificity (Kd, β3/Kd, β1)” value worked out at 9800.

B2: mAb DM7 (antibody, V domains shown)
VH: B1 VH with T28D, I34M, F103L, A104Y
VL: DIQMTQSPSSLSASVGDRVTITCRASSSVSYMHWYQQKPGKAPKPLIYATSNLAKGVPSRFSGSGSGTDFTLTISSLQPEDFATYYCQQWDLNPPAFGQGTKLEIK
For the molecule B2, the “Specificity (Kd, β3/Kd, β1)” value stood at 2320.

B3: mAb DM4 (antibody, human IgG4 S228P, kappa, V domains shown)
VH: B1 VH with T28D, F103L
VL: B1 VL with P30S, F35Y, S45P, P53L
notes: Full-length IgG4 antibody; also called LA307-DM4
Consider B3, for which the “Specificity (Kd, β3/Kd, β1)” value was 621.

B4: mAb 23A3 (antibody, V domains shown)
VH: B1 VH with T28D, I34M, H35V, Y50S, W102A, A104E
VL: B2 VL with S30P, P45L, L53P, K55Y
On to B4, for which the “Specificity (Kd, β3/Kd, β1)” value was found to be 1050.
